Assay results published in FireProtDB (doi:10.1021/bi050342n).

Details: Pseudomonas aeruginosa (strain ATCC 15692 / DSM 22644 / CIP 104116 / JCM 14847 / LMG 12228 / 1C / PRS 101 / PAO1); pH 7; 25 °C; GdnHCl; Fluorescence, CD; Tris-HCl 100 mM; reversible: Yes; whole UniProt chain shown

B1: Azurin wild type, P00282 (protein)
chain: MLRKLAAVSLLSLLSAPLLAAECSVDIQGNDQMQFNTNAITVDKSCKQFTVNLSHPGNLPKNVMGHNWVLSTAADMQGVVTDGMASGLDKDYLKPDDSRVIAHTKLIGSGEKDSVTFDVSKLKEGEQYMFFCTFPGHSALMKGTLTLK
  denaturant m value: 4.06 kcal/mol/M
  unfolding free energy: 12.9 kcal/mol
